Data as given in paper PMC3581573 (PLoS ONE, 2013).

B1: Recombinant Xenopus laevis MEP50 alone (natural protein, UniProt Q6NUD0 1-333, looked up)
chain: MSKGSAWGRPVTAPACMEVQIGAVRYRRDGALLLAASSLSSRTWGGSIWVFKDPEGAPNESLCTAGVQTEAGVTDVAWVSEKGILVASDSGAVELWEILEKESLLVNKFAKYEHDDIVKTLSVFSDGTQAVSGGKDFSVKVWDLSQKAVLKSYNAHSSEVNCVAACPGKDTIFLSCGEDGRILLWDTRKPKPATRIDFCASDTIPTSVTWHPEKDDTFACGDETGNVSLVNIKNPDSAQTSAVHSQNITGLAYSYHSSPFLASISEDCTVAVLDADFSEVFRDLSHRDFVTGVAWSPLDHSKFTTVGWDHKVLHHHLPSEGRTENLIATKAED
notes: MEP50, Xenopus laevis; recombinant protein used without PRMT5; also called XlMEP50; Xenopus MEP50
B2: Xenopus laevis PRMT5 (enzyme, UniProt Q6NUA1 1-633, looked up)
chain: MAAGDGGRVSSGRDVACVTEVADTLGAMANQGFDFLCMPIFHPRFKREFYKEPAKSRPGPQTRSDLLLSGRDWNTLIVGKLSDWIKTDSEVSRIRKTSEAAMQQELNFSAYLGLPAFLIPLKQEDNSNLSRLLINHIHVGHHSTMFWMRVPLMAPNDLRDDLIENEPISLSEEDNSGEERTWIWWHNFRSLCDYNKKIALAIEIGADLPSGHVIDRWLGEPIKAAFLPTSIFLTNKKGFPVLTKVHQRLIFKLFKLEVQFVISGSHHHSEKDLCSYLQYLEYLSQNSPPPNAYEMFAKGYEDYLQSPLQPLMDNLESQTYEVFEKDPVKYSQYQQAVYKCLLDRVPEEEKETNIQILMVLGAGRGPLVNASLRAAKQAERKIKVYAVEKNPNAVITLEGWRYEEWGSQVTVVSGDMREWKAPEKADIIVSELLGSFGDNELSPECLDGAQHFLKDDGVSIPGEYTSYLAPISSSKLYNEVRACREKDRDPEAQFEMPYVVRLHNFHQLSDPLPCFTFHHPNKDDVIDNNRYCCLQYRVDLNTVLHGFAGYFNTVLYKDVTLSICPESHSPGMFSWFPILFPIKQPIPMREGDTVCVRFWRCNNGKKVWYEWAVTSPVCSAIHNPTGRSYTIGL
notes: Protein arginine methyltransferase 5 (PRMT5), Xenopus laevis, full-length, as the PRMT5 chain of the crystallised XlPRMT5-MEP50 complex; The complex was purified on Ni-NTA, so one or both chains probably carry a His tag; A selenomethionine form was used for phasing; also called XlPRMT5; source: Hi5 cells, baculovirus, co-expressed with MEP50, purified (Ni-NTA, Superdex 200)

Key:
[1] = target: T1, Recombinant Flag-tagged human PRMT5 (human, UniProt O14744 1-637); experiment: pull-down; XlMEP50 and Flag-HsPRMT5 (both 50 nM) on anti-Flag M2 agarose in TBS, 4°C, 2 hours; eluate immunoblotted for PRMT5 and MEP50; control: MEP50 without PRMT5; conditions: both partners purified
T1 construct: Protein arginine methyltransferase 5 (PRMT5), human; also called Flag-HsPRMT5; HsPRMT5; source: bought: SinoBiologicals (expressed in 293 cells)

[2] = target: the molecule itself; experiment: crystal structure; XlPRMT5-MEP50 co-crystallised with 1 mM SAH; 30%–40% MPD, 100 mM Bis-Tris pH 5.5, 18°C; 3.0 Å

T1 sequence (O14744 whole entry): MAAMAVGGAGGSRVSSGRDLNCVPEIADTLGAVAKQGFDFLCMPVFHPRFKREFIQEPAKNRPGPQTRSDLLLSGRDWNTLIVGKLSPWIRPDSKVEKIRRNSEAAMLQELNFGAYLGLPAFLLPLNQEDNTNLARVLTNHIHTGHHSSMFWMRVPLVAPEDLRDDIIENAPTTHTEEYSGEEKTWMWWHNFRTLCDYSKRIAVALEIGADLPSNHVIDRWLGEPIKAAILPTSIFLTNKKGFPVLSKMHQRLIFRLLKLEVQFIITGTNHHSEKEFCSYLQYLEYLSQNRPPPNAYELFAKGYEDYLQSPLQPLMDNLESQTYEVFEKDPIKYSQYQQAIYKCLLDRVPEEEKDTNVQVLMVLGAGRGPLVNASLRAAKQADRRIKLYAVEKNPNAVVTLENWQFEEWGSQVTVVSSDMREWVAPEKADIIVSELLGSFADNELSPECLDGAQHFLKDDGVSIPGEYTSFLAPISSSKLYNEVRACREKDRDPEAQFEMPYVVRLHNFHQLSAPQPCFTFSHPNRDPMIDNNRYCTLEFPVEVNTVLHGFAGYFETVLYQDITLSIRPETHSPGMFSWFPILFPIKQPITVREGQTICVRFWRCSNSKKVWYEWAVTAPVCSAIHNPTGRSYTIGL

Binder | binding result [1] | stoichiometry N [2]
B1 | binds | 
B2 |  | 4
